“Also recorded” adds a separate entry of the source. Like-named read-outs stand apart in the source and are kept apart here.
Columns and labels:
U251 human glioma cells = assay: Targeted glioma cell death in vitro; format: cell-based; conditions: single dose
Experimental: All treatments, N=3. FIG. 27A. Comparing cytotoxicity to HER2+ (MDAMB-435) and HER2− (MDA-MB-231) cells in separate cultures. Left, Relative survival (as % of untreated cells) on day 3 of treatment. Right, Micrograph of live cells after treatment. Control, mock (HBS) treatment. FIG. 27B, Receptor specificity of cytotoxicity. […] FIG. 27C, Toxicity to cells displaying differential HER2. Cytotoxicities from HerDox titrations were assessed on each cell line by metabolic assay and confirmed by crystal violet stain on day 3 of treatment. CD50 values (shown in log scale) were determined by non-linear regression analyses of HerDox killing curves using GraphPad Prism. The relative HER2 level of each cell line is shown next to each CD50 value. FIG. 27D, Targeting in a mixed MDA-MB-435(HER2+,GFP−)/MDA-MB-231(HER2−,GFP+) cell culture. Survival was determined by calculating the relative doubling time (DT) of experimental (exp) cells normalized by mock-treated (con) cells based on crystal violet stains (total cells) and GFP fluorescence (MDAMB-231 cells), and applying DTMDA-MB-435=DTTotal-DTMDA-MB-231 as previously described. Relative survival is shown for Day 2 of treatment. […] U251 cells were treated once with the indicated HerDox (and competitive inhibitor where indicated) or Dox doses and measured for cell survival at the indicated time points after treatment. * P<0.05 compared to Mock. […]

[1] = Experimental: FIG. 26A. Stability in blood. […] N=3. […] Control conditions preventing digest include using heat-inactivated (HI) serum and 0° C. incubation. FIG. 26C. Assessing Dox retention in serum.
To study stability in blood, HerDox or Dox (60 uM each) were incubated in equivalent volumes of whole blood (containing 0.5 mM EDTA to prevent coagulation and freshly collected from the aorta of an anesthetized mouse following IACUC-approved procedures) for up to 60 min at 37° C., followed by centrifugation through 10K mwco filters. Retentate and filtrate fluorescences were extrapolated against a Dox calibration curve performed in blood plasma to correct for plasma-induced fluorescence shift. […] Control conditions preventing digest include using heat-inactivated serum and 0° C. incubation. […] Filtrates were collected and membranes washed 3× with HBS before collection and fluorescence measurement of retentates. All fluorescence spectra were obtained using a 515 nm cutoff filter.

MDA-MB-435 tumors [2] = assay: Therapeutic efficacy in vivo, daily i.v. injections for 7 days; set-up: species or system mouse; conditions: for tumor growth: 0.004 mg/kg Dox equivalent, daily i.v. for seven days
MDA-MB-435 tumors [3] = assay: HerDox/Dox tumor targeting, biodistribution and pharmacokinetics by fluorescence imaging
Experimental: Tumor-bearing mice were injected with 0.02 mg/kg (final Dox dose) of HerDox or Dox via the tail vein and imaged with a custom small animal imager. FIG. 19A, Imaging of live mice after TV delivery of HerDox. Time points are shown as minutes after injection. Tumors are indicated by arrows. FIG. 19B, Imaging of tumors and tissues harvested at 3 h after injection of HerDox or Dox. Fluorescence signal from Dox is pseudo-colored according to the color bar, with a shift toward 100 indicating high fluorescence intensity.
FIG. 29A, Live mouse imaging of HerDox at indicated time points after injection. Arrows, Tumors. 29B-29C, Comparative biodistribution of HerDox and Dox in tissues harvested at 3 h post-injection. FIG. 29B, Imaging of biodistribution in harvested tissues. Pseudocolored FI corresponds to the color bar. Max, highest FI. FIG. 29C, Quantification of HerDox and Dox biodistribution, showing Dox FI/tissue. FIG. 29D. Comparative pharmacokinetics of HerDox and Dox in mice with tumors expressing differential HER2. Tissues were harvested from independently injected mice euthanized at indicated time points after injection and FI/tissue acquired using a small animal imaging system as described herein.
Mice received a single tail vein injection of Dox alone or the complex (HerDox) (0.02 mg/kg with respect to Dox conc) and were imaged live using a customized macro-illumination and detection system.
Heart rate and body temperature were monitored. […] Three beats were averaged for each measurement.
A customized macro-illumination and detection system was used for in vivo and tissue imaging. Dox was excited with the 488 nm line of a Coherent Innova ArKr laser. Laser light (300 mW) was directed into a light-tight box via mirrors and expanded by an engineered circular tophat diffuser (Thorlabs ED1-C20) to a uniform circular beam of approximately 15 cm in diameter. The incidence angle to the vertical plane was approximately 150. Fluorescence light was collected via a telecentric lens (Melles-Griot 59LGG925 base lens with a 59LGL428 attachment lens) that can operate at f/#2, has a magnification of 0.9, working distance of 257 mm and a depth of field of 81.5 mm. A bandpass filter (580 nm with a 50 nm bandwidth) was used in the emission pathway to reject the excitation light. Images showing FI were collected with a cooled CCD camera (Hamamatsu ORCA-ER). Where indicated, a Maestro imager was used (Cedars-Sinai Imaging Core Facility). ImageJ was used to calculate average fluorescence intensities of the overall region of each selected tissue.
MDA-MB-435 tumor-bearing mice were imaged live after a single tail vein injection of HerDox, in order to visualize tumor-targeting ability in vivo.

MDA-MB-435 (HER2+) cells = assay: HerDox targeted toxicity in vitro, separate cultures; format: cell-based, human; conditions: MDA-MB-435, day 3
Experimental: All treatments, N=3. FIG. 27A. Comparing cytotoxicity to HER2+ (MDAMB-435) and HER2− (MDA-MB-231) cells in separate cultures. Left, Relative survival (as % of untreated cells) on day 3 of treatment. Right, Micrograph of live cells after treatment. Control, mock (HBS) treatment. FIG. 27B, Receptor specificity of cytotoxicity. […] FIG. 27C, Toxicity to cells displaying differential HER2. Cytotoxicities from HerDox titrations were assessed on each cell line by metabolic assay and confirmed by crystal violet stain on day 3 of treatment. CD50 values (shown in log scale) were determined by non-linear regression analyses of HerDox killing curves using GraphPad Prism. The relative HER2 level of each cell line is shown next to each CD50 value. FIG. 27D, Targeting in a mixed MDA-MB-435(HER2+,GFP−)/MDA-MB-231(HER2−,GFP+) cell culture. Survival was determined by calculating the relative doubling time (DT) of experimental (exp) cells normalized by mock-treated (con) cells based on crystal violet stains (total cells) and GFP fluorescence (MDAMB-231 cells), and applying DTMDA-MB-435=DTTotal-DTMDA-MB-231 as previously described. Relative survival is shown for Day 2 of treatment. FIG. 27E, Targeted glioma cell death in vitro. U251 cells were treated once with the indicated HerDox (and competitive inhibitor where indicated) or Dox doses and measured for cell survival at the indicated time points after treatment. * P<0.05 compared to Mock.
For all in vitro treatments, cell lines were grown for ˜36 h after plating (104/well in 96-well dishes) to allow receptor re-expression, followed by media replacement with new media containing indicated constructs in reduced volume at the indicated final molarities for 4 h with rocking, followed by supplementation with additional media and continued growth for the indicated time periods. Except for the experiments performed on the U251 glioma cells (which received a one-time treatment), cells received these treatments daily while separate sets of wells were assessed for cell death by either metabolic assay (CellTiter Promega Corporation, Madison, WI, USA) or crystal violet stain each day. Where indicated, cells received competitive inhibitor (eHRG) at 10× molar excess for 30 min-1 h at 4° C. before treatment. Treatment of mixed (HER2+/HER2−) cell cultures with HerDox or Dox (0.5 uM), and cell surface receptor subunit level determination were performed as previously described.

[4] = maximum FI, ˜3 h after injection
[5] = single tail vein injection, 0.02 mg/kg Dox

Molecule: COc1cccc2c1C(=O)c1c(O)c3c(c(O)c1C2=O)C[C@@](O)(C(=O)CO)C[C@@H]3O[C@H]1C[C@H](N)[C@H](O)[C@H](C)O1.Cl [Dox, Doxorubicin-HCl, reference compound]
- cell death (U251 human glioma cells): 75-80%
- Dox loss from retentates [1]: ~70%
- protection of the DNA duplex from serum degradation [1]: partially protected the DNA from serum degradation
- remaining free Dox (weak or non-specific binding to serum proteins) ([1]; mouse, serum): ~30%
- tumor growth (MDA-MB-435 tumors [2]): low efficacy
- tumor ablation compared with HerDox (MDA-MB-435 tumors [2]; 10× higher Dox dose (0.04 mg/kg)): slightly less effective
- fluorescence in the lungs and skeletal muscle (MDA-MB-435 tumors [3]; harvested ˜3 h after injection): Lower levels of fluorescence
- fluorescence in the kidneys (MDA-MB-435 tumors [3]; mouse, in vivo): detectable fluorescence
- fluorescence in the liver (MDA-MB-435 tumors [3]; mouse, in vivo): detectable fluorescence
- fluorescence in the tumors (MDA-MB-435 tumors [3]; mouse, in vivo): detectable fluorescence
- tumor accumulated Dox lower compared to HerDox (MDA-MB-435 tumors [3]; mouse, in vivo): 1000 fluorescence units
- toxicity / survival (MDA-MB-435 (HER2+) cells): no preference

B1: HerDox: self-assembled nanoparticle of oligonucleotide duplex, doxorubicin and HerPBK10 (conjugate)
chain: LPPRLKEMKSQESAAGSKLVLRCETSSEYSSLRFKWFKNGNELNRKNKPQNIKIQKKPGKSELRINKASLADSGEYMCKVISKLGNDSASANITIVESNEIITGMPASTEGAYVSSESPIRISVSTEGANTSSSTSTSTTGTSHLVKCAEKEKTFCVNGGECFMVKDLSNPSRYLCKCQPGFTGARCTENVPMKVQNQEKAEELYMRRAAMYEEGPPPSYESVVSAAPVAAALGSPFDAPLDPPFVPPRYLRPTGGRNSIRYSELAPLFDTTRVYLVDNKSTDVASLNYQNDHSNFLTTVIQNNDYSPGEASTQTINLDDRSHWGGDLKTILHTNMPNVNEFMFTNKFKARVMVSRLPTKDNQVELKYEWVEFTLPEGNYSETMTIDLMNNAIVEHYLKVGRQNGVLESDIGVKFDTRNFRLGFDPVTGLVMPGVYTNEAFHPDIILLPGCGVDFTHSRLSNLLGIRKRQPFQEGFRITYDDLEGGNIPALLDVDAYQASLKDDTEQGGGGAGGSNSSGSGAEENSNAAAAAMQPVEDMNDHAIRGDTFATRAEEKRAEAEAAAEAAAPAAQPEVEKPQKKPVIKPLTEDSKKRSYNLISNDSTFTQYRSWYLAYNYGDPQTGIRSWTLLCTPDVTCGSEQVYWSLPDMMQDPVTFRSTRQISNFPVVGAELLPVHSKSFYNDQAVYSQLIRQFTSLTHVFNRFPENQILARPPAPTITTVSENVPALTDHGTLPLRNSIGGVQRVTITDARRRTCPYVYKALGIVSPRVLSSRTFKKKKKKKKKK
- cell death (U251 human glioma cells): 96-99%
- Dox loss from retentates ([1]; 100% mouse serum, 30 min at 37° C., 10K mwco): no Dox loss was detected
- tumor growth (MDA-MB-435 tumors [2]): ablation of tumor growth
- dose for tumor ablation lower compared to untargeted doxorubicin (MDA-MB-435 tumors [2]; intravenous delivery): > 10 ×
- fluorescence in heart, spleen, lungs, and skeletal muscle (MDA-MB-435 tumors [3]; harvested ˜3 h after injection): did not exhibit any fluorescence; also recorded: no detectable fluorescence
- fluorescence in the kidneys (MDA-MB-435 tumors [3]; harvested ˜3 h after injection): barely detectable
- fluorescence in the liver (MDA-MB-435 tumors [3]; harvested ˜3 h after injection): substantially lower levels of fluorescence
- fluorescence in the tumors (MDA-MB-435 tumors [3]; harvested ˜3 h after injection): intense fluorescence
- kidney FI lower than tumors (MDA-MB-435 tumors [3]; [4]): 65%
- liver FI lower than tumors (MDA-MB-435 tumors [3]; [4]): 45%
- time of kidney entry (MDA-MB-435 tumors [3]; pharmacokinetics, single i.v. injection): ≤ 10 min
- time detectable in the tumors after injection (MDA-MB-435 tumors [3]; [5]): up to 100 min
- time of accumulation at the tumors after injection (MDA-MB-435 tumors [3]; [5]): ≤ 20 min
- tumor accumulation higher compared to normal tissue (MDA-MB-435 tumors [3]; up to 24 h, heart, liver, muscle, spleen, lung, kidneys): 500-1000 fluorescence units higher/tissue
- toxicity / survival (MDA-MB-435 (HER2+) cells): significant toxicity
